Test results taken from patent US20230125561A1.

Target: SARS-CoV-2 Spike S1 protein, B.1.1.7 (UK (Kent)) variant (SARS-CoV-2) (UniProt P0DTC2)
Experiment: ELISA
Conditions: designed binder

Neumifil (HEX17: trimeric (hexavalent) form based on S. pneumoniae CBM40)
EC50: 0.137 µg/mL
